# Experimental data taken from paper PMC12884264.
# Experiments:
# [1] = target: supercharged green fluorescent protein GFP(+28) [GFP: P42212]; experiment: SEC
# [2] = target: supercharged green fluorescent protein GFP(+36) [GFP: P42212]; experiment: SEC
# [3] = target: computationally designed GFP(+16)BE (positive charges mainly at both ends of the barrel) [GFP: P42212]; experiment: SEC
# [4] = target: Archaeoglobus fulgidus ferritin, wildtype (Archaeoglobus fulgidus) (UniProt O29424); experiment: time-resolved fluorescence anisotropy
# [5] = target: Archaeoglobus fulgidus ferritin, wildtype (Archaeoglobus fulgidus) (UniProt O29424); experiment: SEC + other: UV/Vis absorbance
Substance,Kd [1],Kd [2],stoichiometry N (GFP per 24 mer) [2],Kd [3],stoichiometry N (AfFtn2 per GFP(+36)) [4],stoichiometry N (GFP(+36) per cage) [4],stoichiometry N (GFP per ferritin cage) [5],stoichiometry N (GFP(+36) per 24 mer ferritin) [5],stoichiometry N (GFP(+36) per AfFtn24) [5],stoichiometry N (GFP(+36) per ferritin 24 mer) [5]
"Archaeoglobus fulgidus ferritin, wildtype (from UniProt O29424 1-173) (natural protein)",36.7 µM,22.7 µM,3,51.5 µM,,,,,,
supercharged green fluorescent protein GFP(+36) (from UniProt P42212 1-238),,,,,12,1,2 to 3,0.7,1.2,4 to 5
